Experimental data reported in patent US20160289285A1 (Molecular Partners, published 2016).

Target: T1, human serum albumin (human, UniProt P02768 25-609)
T1 construct: For SEC-MALS purified from CSL Behring 20% solution; also called HSA; SA (human)
Experiment: size exclusion chromatography coupled to static light scattering

T1 sequence (P02768 25-609 limits assumed): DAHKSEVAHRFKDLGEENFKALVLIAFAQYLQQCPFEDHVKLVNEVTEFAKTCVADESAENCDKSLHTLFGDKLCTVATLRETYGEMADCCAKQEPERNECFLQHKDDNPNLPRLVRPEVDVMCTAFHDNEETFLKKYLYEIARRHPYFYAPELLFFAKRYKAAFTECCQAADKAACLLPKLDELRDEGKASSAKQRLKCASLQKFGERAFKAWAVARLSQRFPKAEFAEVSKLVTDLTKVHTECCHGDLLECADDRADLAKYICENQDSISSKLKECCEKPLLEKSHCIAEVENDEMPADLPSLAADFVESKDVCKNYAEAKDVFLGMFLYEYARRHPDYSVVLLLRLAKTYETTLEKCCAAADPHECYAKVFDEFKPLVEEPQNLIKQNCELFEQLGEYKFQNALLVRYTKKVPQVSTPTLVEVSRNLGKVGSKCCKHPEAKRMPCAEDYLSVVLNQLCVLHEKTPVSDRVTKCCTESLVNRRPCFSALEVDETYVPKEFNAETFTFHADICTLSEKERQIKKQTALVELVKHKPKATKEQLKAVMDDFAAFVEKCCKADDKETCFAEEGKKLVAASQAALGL

Binder | binding result
Protein #102 (designed binder) MRGSHHHHHHGSDLGKKLLEAARAGQDDEVRELLKAGADVNAKDYFSHTPLHLAARNGHLKIVEVLLKAGADVNAKDFAGKTPLHLAANDGHLEIVEVLLKAGADVNAQDIFGKTPADIAADAGHEDIAEVLQKAAGSPTPTPTTPTPTPTTPTPTPTGSDLGKKLLEAARAGQDDEVRILLKAGADVNAKDRYGDTPLHLAADIGHLEIVEVLLKAGADVNAEDYFGNTPLHLAASYGHLEIVEVLLKAGADVNAKDDYGNTPLHLAANTGHLEIVEVLLKAGADVNAQDKSGKTPADLAADAGHEDIAEVLQKAAGSPTPTPTTPTPTPTTPTPTPTGSDLDKKLLEAARAGQDDEVRILLKAGADVNAKDSTGWTPLHLAAPWGHPEIVEVLLKAGADVNAKDFQGWTPLHLAAAVGHLEIVEVLLKAGADVNAQDKSGKTPADLAADAGHEDIAEVLQKAAGSPTPTPTTPTPTPTTPTPTPTGSDLGKKLLEAARAGQDDEVRELLKAGADVNAKDYFSHTPLHLAARNGHLKIVEVLLKAGADVNAKDFAGKTPLHLAANDGHLEIVEVLLKAGADVNAQDIFGKTPADIAADAGHEDIAEVLQKAA | binds
Protein #109 (designed binder) MRGSHHHHHHGSDLGKKLLEAARAGQDDEVRILMANGADVNAKDYFSHTPLHLAARNGHLKIVEVLLKAGADVNAKDFAGKTPLHLAANDGHLEIVEVLLKHGADVNAQDIFGKTPADIAADAGHEDIAEVLQKLGSPTPTPTTPTPTPTTPTPTPTGSRSDLGKKLLEAARAGQDDEVRILMANGADVNAKDYFSHTPLHLAARNGHLKIVEVLLKAGADVNAKDFAGKTPLHLAANDGHLEIVEVLLKHGADVNAQDIFGKTPADIAADAGHEDIAEVLQKLGSPTPTPTTPTPTPTTPTPTPTGSRSDLGKKLLEAARAGQDDEVRILMANGADVNAKDKDGYTPLHLAAREGHLEIVEVLLKAGADVNAKDKDGYTPLHLAAREGHLEIVEVLLKAGADVNAQDKFGKTAFDISIDNGNEDLAEILQKLGSPTPTPTTPTPTPTTPTPTPTGSRSDLGKKLLEAARAGQDDEVRILMANGADVNAKDKDGYTPLHLAAREGHLEIVEVLLKAGADVNAKDKDGYTPLHLAAREGHLEIVEVLLKAGADVNAQDKFGKTAFDISIDNGNEDLAEILQKLN | binds
Protein #97 (designed binder) MRGSHHHHHHGSDLGKKLLEAARAGQDDEVRILMANGADVNAKDYFSHTPLHLAARNGHLKIVEVLLKAGADVNAKDFAGKTPLHLAANDGHLEIVEVLLKHGADVNAQDIFGKTPADIAADAGHEDIAEVLQKLGSPTPTPTTPTPTPTTPTPTPTGSRSDLGKKLLEAARAGQDDEVRILLKAGADVNAKDRYGDTPLHLAADAGHLKIVEVLLKAGADVNAEDYFGNTPLHLAASAGHLEIVEVLLKAGADVNAKDDAGNTPLHLAANTGHLKIVEVLLKAGADVNAQDKSGKTPADLAADAGHEDIAEVLQKLGSPTPTPTTPTPTPTTPTPTPTGSRSDLDKKLLEAARAGQDDEVRILLKAGADVNAKDYLGWTPLHLAAHEGHLEIVEVLLKAGADVNAKDVSGYTPLHLAAADGHLEIVEVLLKAGADVNAKDNTGWTPLHLSADLGHLEIVEVLLKAGADVNAQDKFGKTAFDISIDNGNEDLAEILQKLGSPTPTPTTPTPTPTTPTPTPTGSRSDLGKKLLEAARAGQDDEVRILMANGADVNAKDYFSHTPLHLAARNGHLKIVEVLLKAGADVNAKDFAGKTPLHLAANDGHLEIVEVLLKHGADVNAQDIFGKTPADIAADAGHEDIAEVLQKLN | binds
Protein #110 (designed binder) MRGSHHHHHHGSDLGKKLLEAARAGQDDEVRELLKAGADVNAKDYFSHTPLHLAARNGHLKIVEVLLKAGADVNAKDFAGKTPLHLAANEGHLEIVEVLLKAGADVNAQDIFGKTPADIAADAGHEDIAEVLQKAAGSPTPTPTTPTPTPTTPTPTPTGSDLGKKLLEAARAGQDDEVRELLKAGADVNAKDKSGNTPLHLAARFGHLEIVEFLLKAGADVNAKDETGKTPLHLAAIWGHLEIVEVLLKAGADVNAKDLYGRTPLHLAAKLRHLEIVEVLLKAGADVNAQDKFGKTAFDISIDNGNEDLAEILQKAAGSPTPTPTTPTPTPTTPTPTPTGSDLDKKLLEAARAGQDDEVRELLKAGADVNALDQIGWTPLHLAANYGHLEIVEVLLKAGADVNAKDLWGQTPLHLAAWKGHLEIVEVLLKAGADVNAKDTDGLTPLHLAAIRGHLEIVEVLLKAGADVNAQDKSGKTPADLAADAGHEDIAEVLQKAAGSPTPTPTTPTPTPTTPTPTPTGSDLGKKLLEAARAGQDDEVRELLKAGADVNAKDYFSHTPLHLAARNGHLKIVEVLLKAGADVNAKDFAGKTPLHLAANEGHLEIVEVLLKAGADVNAQDIFGKTPADIAADAGHEDIAEVLQKAA | binds

Target: T2, human HGF (human, UniProt P14210 32-728)
T2 construct: also called hepatocyte growth factor
T2 sequence (P14210 32-728 limits assumed): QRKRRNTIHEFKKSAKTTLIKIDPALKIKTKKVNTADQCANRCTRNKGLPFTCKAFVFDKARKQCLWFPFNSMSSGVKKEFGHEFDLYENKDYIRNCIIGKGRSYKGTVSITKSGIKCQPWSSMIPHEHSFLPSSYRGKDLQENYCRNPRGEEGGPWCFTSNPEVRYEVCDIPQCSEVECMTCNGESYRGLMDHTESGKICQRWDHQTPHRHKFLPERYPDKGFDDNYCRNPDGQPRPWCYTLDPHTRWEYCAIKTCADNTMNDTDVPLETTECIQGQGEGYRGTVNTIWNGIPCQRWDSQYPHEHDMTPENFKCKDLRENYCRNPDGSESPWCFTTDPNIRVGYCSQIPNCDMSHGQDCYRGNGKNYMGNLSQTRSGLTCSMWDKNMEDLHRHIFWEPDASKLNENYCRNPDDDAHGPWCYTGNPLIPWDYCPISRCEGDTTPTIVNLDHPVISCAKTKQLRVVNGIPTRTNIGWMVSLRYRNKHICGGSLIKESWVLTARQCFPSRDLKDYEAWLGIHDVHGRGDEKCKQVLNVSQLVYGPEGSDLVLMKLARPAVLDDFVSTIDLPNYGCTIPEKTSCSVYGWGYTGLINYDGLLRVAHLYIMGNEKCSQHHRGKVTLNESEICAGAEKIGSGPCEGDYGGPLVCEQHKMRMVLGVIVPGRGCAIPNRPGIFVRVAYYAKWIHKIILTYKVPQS
Experiment: cMet receptor competition ELISA; 5 nM human HGF, immobilised human cMet
Source text: Such assays are well known to the person skilled in the art. For designed ankyrin repeat domains with binding specificity to VEGF-A, a quantitative sandwich enzyme immunoassay technique was used according to the manufacturer (VEGF-A Quantikine kit DVE00, R&D Systems). A monoclonal antibody specific for VEGF-A was pre-coated onto a microplate. VEGF-A standards and mixtures of VEGF-A (20 pM) and Protein #18, #19, or #20 at varying concentrations were applied to the wells and any free VEGF-A present (i.e. not bound to the designed ankyrin repeat domain) is bound by the immobilized antibody. After washing away any unbound substances, an enzyme-linked polyclonal antibody specific for VEGF-A is added to the wells. Following a wash to remove any unbound antibody-enzyme reagent, a substrate solution is added to the wells and color develops in proportion to the amount of VEGF-A bound in the initial step. The color development is stopped and the intensity of the color is measured. […] IC₅₀ values were calculated from such titration curves obtained as described above using Graph Pad Prism software and standard procedures known to the person skilled in the art. For designed ankyrin repeat domains with binding specificity to HGF, a cMet receptor competition assay was performed. For that purpose, 5 nM of human cMet receptor in PBS were immobilized on Maxisorp plates overnight at 4° C. After washing with PBS 0.05% TWEEN 20, the plate was blocked for 2 h with shaking at 300 rpm using PBS containing 0.05% TWEEN 20 and 0.25% Casein at RT. A constant concentration of 5 nM human HGF was pre-incubated for 30 min at RT with a 1000 nM-1 pM of Proteins #23, #26, #28, and #29 (1:4 dilution series each) on a dilution plate in PBS 0.05% TWEEN 20. After washing of the ELISA plate with PBS 0.05% TWEEN, pre-incubated samples were transferred to the ELISA plate and plate was incubated for 2 h at RT with shaking at 300 rpm. After washing with PBS 0.25% TWEEN, 200 ng/ml anti human HGF antibody was added for 1 h at RT with shaking at 300 rpm. After washing with PBS 0.05% TWEEN, 100 ng/ml HRP conjugated polyclonal anti HGF species antibody was added for 30 min at RT with shaking at 300 rpm. Detection was using 1:3 diluted BM blue POD (Roche).

Binder | IC50
Protein #28 (designed binder) MRGSHHHHHHGSDLGMKLLEAARAGQDDEVRILMANGADVNAHDTWGLTPLHLAAFHGHQEIVEVLLKHGADVNAQDFYGKTPLHLAALRGHLEIVEVLLKYGADVNAQDQFGKTAFDISIDNGNEDLAEILQKAA | 0.955 nM
Protein #26 (designed binder) MRGSHHHHHHGSDLGKKLLEAARAGQDDEVRILLKAGADVNAKDRYGDTPLHLAADIGHLEIVEVLLKAGADVNAEDYFGNTPLHLAASYGHLEIVEVLLKAGADVNAKDDYGNTPLHLAANTGHLEIVEVLLKAGADVNAQDKSGKTPADLAADAGHEDIAEVLQKAA | 0.623 nM
Protein #23 (designed binder) MRGSHHHHHHGSDLGKKLLEAARAGQDDEVRILMANGADVNAKDRFGDTPLHLAADIGHLKIVEVLLKHGADVNAEDWFGNTPLHLAASMGHLEIVEVLLKYGADVNAMDDYGNTPLHLAANTGHLEIVEVLLKHGADVNAQDKFGKTAFDISIDNGNEDLAEILQKAA | 0.915 nM

Target: T3, human VEGF-A (human, UniProt P15692-4 27-191, limits assumed)
T3 construct: Recombinant, bought or produced in CHO or Pichia pastoris; also called hVEGF-A
T3 sequence (P15692 other isoform, or with tags, fused parts or gaps limits assumed): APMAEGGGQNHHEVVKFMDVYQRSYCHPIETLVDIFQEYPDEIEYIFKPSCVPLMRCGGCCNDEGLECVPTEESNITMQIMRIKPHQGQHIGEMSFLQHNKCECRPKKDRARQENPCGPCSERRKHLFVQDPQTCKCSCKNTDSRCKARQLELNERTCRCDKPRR
Experiment: SPR (ProteOn)
Protocol: (§1) SPR was measured using a ProteOn instrument (BioRad) and measurement was performed according standard procedures known to the person skilled in the art.

Binder | Kd | binding result
Protein #12 (designed binder) MRGSHHHHHHGSDLGKKLLEAARAGQDDEVRILMANGADVNAFDWMGWTPLHLAAHEGHLEIVEVLLKNGADVNATDVSGYTPLHLAAADGHLEIVEVLLKHGADVNTKDNTGWTPLHLSADLGHLEIVEVLLKNGADVNAQDKFGKTAFDISIDNGNEDLAEILQKAA | 0.094 nM | 
Protein #13 (designed binder) MRGSHHHHHHGSDLDKKLLEAARAGQDDEVRILLKAGADVNAKDYLGWTPLHLAAHEGHLEIVEVLLKAGADVNAKDVSGYTPLHLAAADGHLEIVEVLLKAGADVNAKDNTGWTPLHLSADLGHLEIVEVLLKAGADVNAQDKFGKTAFDISIDNGNEDLAEILQKAA | 0.096 nM | 
Protein #14 (designed binder) MRGSHHHHHHGSDLGKKLLEAARAGQDDEVRILMANGADVNTADSTGWTPLHLAAPWGHPEIVEVLLKNGADVNAHDYQGWTPLHLAATLGHLEIVEVLLKHGADVNAQDKFGKTAFDISIDNGNEDLAEILQKAA |  | binds
Protein #22 (designed binder) MRGSHHHHHHGSDLDKKLLEAARAGQDDEVRILMANGADVNAKDSTGWTPLHLAAPWGHLEIVEVLLKAGADVNAKDFQGWTPLHLAAAVGHLEIVEVLLKAGADVNAQDKFGKTAFDISIDNGNEDLAEILQKAA |  | binds
Protein #17 (designed binder) MRGSHHHHHHGSDLGKKLLEAARAGQDDEVRILMANGADVNARDSTGWTPLHLAAPWGHPEIVEVLLKNGADVNAADFQGWTPLHLAAAVGHLEIVEVLLKHGADVNAQDKFGKTAFDISIDNGNEDLAEILQKAA |  | binds
Protein #15 (designed binder) MRGSHHHHHHGSDLGKKLLEAARAGQDDEVRILMANGADVNTADSTGWTPLHLAVPWGHLEIVEVLLKYGADVNAKDFQGWTPLHLAAAIGHQEIVEVLLKNGADVNAQDKFGKTAFDISIDNGNEDLAEILQKAA |  | binds
Protein #16 (designed binder) MRGSHHHHHHGSDLDKKLLEAARAGQDDEVRILMANGADVNAKDSTGYTPLHLAAPWGHLEIVEVLLKAGADVNAKDYQGWTPLHLAAAVGHLEIVEVLLKAGADVNAQDKSGKTPADLAADAGHEDIAEVLQKAA | 0.141 nM | 
Protein #21 (designed binder) MRGSHHHHHHGSDLDKKLLEAARAGQDDEVRILLKAGADVNAKDSTGWTPLHLAAPWGHPEIVEVLLKAGADVNAKDYQGWTPLHLAAAVGHLEIVEVLLKAGADVNAQDKSGKTPADLAADAGHEDIAEVLQKAA |  | binds

Target: T2, human HGF
Experiment: SPR (ProteOn)
Protocol: as §1

Binder | Kd
Protein #28 (designed binder) MRGSHHHHHHGSDLGMKLLEAARAGQDDEVRILMANGADVNAHDTWGLTPLHLAAFHGHQEIVEVLLKHGADVNAQDFYGKTPLHLAALRGHLEIVEVLLKYGADVNAQDQFGKTAFDISIDNGNEDLAEILQKAA | 0.026 nM
Protein #26 (designed binder) MRGSHHHHHHGSDLGKKLLEAARAGQDDEVRILLKAGADVNAKDRYGDTPLHLAADIGHLEIVEVLLKAGADVNAEDYFGNTPLHLAASYGHLEIVEVLLKAGADVNAKDDYGNTPLHLAANTGHLEIVEVLLKAGADVNAQDKSGKTPADLAADAGHEDIAEVLQKAA | 0.051 nM
Protein #23 (designed binder) MRGSHHHHHHGSDLGKKLLEAARAGQDDEVRILMANGADVNAKDRFGDTPLHLAADIGHLKIVEVLLKHGADVNAEDWFGNTPLHLAASMGHLEIVEVLLKYGADVNAMDDYGNTPLHLAANTGHLEIVEVLLKHGADVNAQDKFGKTAFDISIDNGNEDLAEILQKAA | 0.016 nM
